The substances below were run against human recombinant CXCL10 (human) (UniProt P02778).
UniProt P02778, sequence (P02778 22-98): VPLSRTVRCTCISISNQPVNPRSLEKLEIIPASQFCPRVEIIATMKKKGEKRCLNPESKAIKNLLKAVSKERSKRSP

| Substance | CXCL10 cleavage rate: GP63 in conditioned medium incubated with 1000 pg/mL CXCL10 for 2 hours, remaining CXCL10 measured by ELISA, rate by linear regression |
| --- | --- |
| L. (L.) major GP63 D463N mutant gp63^PYSNGS (from UniProt P08148 40-577) (enzyme) | 1.16 pg/mL/min |
| L. (L.) major GP63 (glycoprotein-63), wild-type allele gp63^PYSDGS (from UniProt P08148 40-577) (enzyme) | 6.07 pg/mL/min |
| L. (L.) major GP63 triple mutant gp63^GYSNGA (from UniProt P08148 40-577) (enzyme) | 0.14 pg/mL/min |

Reference: paper PMC8577781
